# B1: GLTSCR2 (parent)
# chain: YNPSFEDHQTLLSAAHEVELQRQK
# B2: ZNF193 (parent)
# chain: QKRYHCKECGKVFSQSAGLIQHQR
# Variants of: B1
# Assay: protein stability index of a GFP-peptide fusion (GPS, HEK-293T) (PSI 1-6); higher = more stable
# Conditions: c terminus: a fixed tail appended
# 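Further: lentivirally expressed fusions sorted by FACS into six bins by GFP to DsRed ratio, PSI derived from sequencing read proportions per bin multiplied by bin number.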
row,Variant,protein stability index
1,YNPSFEDHQTLLSAAHEVELQRMK,3.4
2,YNPSFEDHQTLLSAAHEVELQRGK,4.12
3,YNPSFEDHQTLLSAAHEVELQRYK,3.19
4,YNPSFEDHQTLLSAAHEVELQRVK,3.57
5,YNPSFEDHQTLLSAAHEVELQRCK,3.06
6,YNPSFEDHQTLLSAAHEVELQRIK,3.23
7,YNPSFEDHQTLLSAAHEVELQRKK,3.75
8,YNPSFEDHQTLLSAAHEVELQRSK,3.63
9,YNPSFEDHQTLLSAAHEVELQRRK,3.5
10,YNPSFEDHQTLLSAAHEVELQRWK,2.95
11,YNPSFEDHQTLLSAAHEVELQREK,4.13
12,YNPSFEDHQTLLSAAHEVELQRNK,3.45
13,YNPSFEDHQTLLSAAHEVELQRHK,3.33
14,YNPSFEDHQTLLSAAHEVELQRTK,3.68
15,YNPSFEDHQTLLSAAHEVELQRFK,2.56
16,YNPSFEDHQTLLSAAHEVELQRDK,4.23
17,YNPSFEDHQTLLSAAHEVELQRLK,3.21
18,YNPSFEDHQTLLSAAHEVELQRAK,3.75
19,YNPSFEDHQTLLSAAHEVELQRPK,3.96
20,YNPSFEDHQTLLSAAHEVELQRQC,3.22
21,YNPSFEDHQTLLSAAHEVELQRQA,3.39
22,YNPSFEDHQTLLSAAHEVELQRQH,3.23
23,YNPSFEDHQTLLSAAHEVELQRQY,3.18
24,YNPSFEDHQTLLSAAHEVELQRQP,3.33

row,Variant,protein stability index
1,YNPSFEDHQTLLSAAHEVELQRQN,3.96
2,YNPSFEDHQTLLSAAHEVELQRQM,3.28
3,YNPSFEDHQTLLSAAHEVELQRQT,3.98
4,YNPSFEDHQTLLSAAHEVELQRQG,3.78
5,YNPSFEDHQTLLSAAHEVELQRQL,3.48
6,YNPSFEDHQTLLSAAHEVELQRQS,3.97
7,YNPSFEDHQTLLSAAHEVELQRQW,2.79
8,YNPSFEDHQTLLSAAHEVELQRQD,4.28
9,YNPSFEDHQTLLSAAHEVELQRQV,3.31
10,YNPSFEDHQTLLSAAHEVELQRQQ,3.81
11,YNPSFEDHQTLLSAAHEVELQRQF,2.66
12,YNPSFEDHQTLLSAAHEVELQRQR,3.21
13,YNPSFEDHQTLLSAAHEVELQRQE,4.36
14,YNPSFEDHQTLLSAAHEVELQRQI,3.33
15,YNPSFEDHQTLLSAAHEVELHRQK,2.96
16,YNPSFEDHQTLLSAAHEVELRRQK,3.95
17,YNPSFEDHQTLLSAAHEVELTRQK,3.44
18,YNPSFEDHQTLLSAAHEVELKRQK,3.17
19,YNPSFEDHQTLLSAAHEVELDRQK,4.16
20,YNPSFEDHQTLLSAAHEVELFRQK,3.06
21,YNPSFEDHQTLLSAAHEVELARQK,3.34
22,YNPSFEDHQTLLSAAHEVELMRQK,3.06
23,YNPSFEDHQTLLSAAHEVELIRQK,3.26
24,YNPSFEDHQTLLSAAHEVELVRQK,3.28

row,Variant,protein stability index
1,YNPSFEDHQTLLSAAHEVELNRQK,3.71
2,YNPSFEDHQTLLSAAHEVELCRQK,3.61
3,YNPSFEDHQTLLSAAHEVELYRQK,3.18
4,YNPSFEDHQTLLSAAHEVELSRQK,3.96
5,YNPSFEDHQTLLSAAHEVELLRQK,2.96
6,YNPSFEDHQTLLSAAHEVELGRQK,3.26
7,YNPSFEDHQTLLSAAHEVELPRQK,4.07
8,YNPSFEDHQTLLSAAHEVELERQK,3.42
9,YNPSFEDHQTLLSAAHEVELWRQK,3.06
10,YNPSFEDHQTLLSAAHEYELQRQK,3.49
11,YNPSFEDHQTLLSAAHERELQRQK,3.43
12,YNPSFEDHQTLLSAAHETELQRQK,4.24
13,YNPSFEDHQTLLSAAHEWELQRQK,2.54
14,YNPSFEDHQTLLSAAHESELQRQK,3.65
15,YNPSFEDHQTLLSAAHEQELQRQK,3.76
16,YNPSFEDHQTLLSAAHEVNLQRQK,3.36
17,YNPSFEDHQTLLSAAHEVCLQRQK,3.33
18,YNPSFEDHQTLLSAAHEVILQRQK,2.85
19,YNPSFEDHQTLLSAAHEVPLQRQK,3.86
20,YNPSFEDHQTLLSAAHEVVLQRQK,2.67
21,YNPSFEDHQTLLSAAHEVTLQRQK,3.5
22,YNPSFEDHQTLLSAAHEVYLQRQK,2.42
23,YNPSFEDHQTLLSAAHEVMLQRQK,3.01
24,YNPSFEDHQTLLSAAHEVFLQRQK,2.49

row,Variant,protein stability index
1,YNPSFEDHQTLLSAAHEVALQRQK,2.63
2,YNPSFEDHQTLLSAAHEVDLQRQK,4.05
3,YNPSFEDHQTLLSAAHEVQLQRQK,3.36
4,YNPSFEDHQTLLSAAHEVRLQRQK,2.69
5,YNPSFEDHQTLLSAAHEVWLQRQK,2.75
6,YNPSFEDHQTLLSAAHEVLLQRQK,2.28
7,YNPSFEDHQTLLSAAHEVHLQRQK,3.39
8,YNPSFEDHQTLLSAAHEVKLQRQK,3.25
9,YNPSFEDHQTLLSAAHEVSLQRQK,3.39
10,YNPSFEDHQTLLSAAHEVGLQRQK,3.8
11,YNPSFEDHQTLLSAAHEVELQFQK,3.43
12,YNPSFEDHQTLLSAAHEVELQGQK,3.86
13,YNPSFEDHQTLLSAAHEVELQLQK,3.18
14,YNPSFEDHQTLLSAAHEVELQCQK,3.35
15,YNPSFEDHQTLLSAAHEVELQHQK,3.99
16,YNPSFEDHQTLLSAAHEVELQTQK,3.96
17,YNPSFEDHQTLLSAAHEVELQSQK,3.9
18,YNPSFEDHQTLLSAAHEVELQDQK,4.84
19,YNPSFEDHQTLLSAAHEVELQPQK,4.21
20,YNPSFEDHQTLLSAAHEVELQMQK,3.4
21,YNPSFEDHQTLLSAAHEVELQQQK,4.24
22,YNPSFEDHQTLLSAAHEVELQVQK,3.7
23,YNPSFEDHQTLLSAAHEVELQYQK,3.16
24,YNPSFEDHQTLLSAAHEVELQKQK,4.13

row,Variant,protein stability index
1,YNPSFEDHQTLLSAAHEVELQEQK,4.69
2,YNPSFEDHQTLLSAAHEVELQIQK,2.91
3,YNPSFEDHQTLLSAAHEVELQAQK,4.18
4,YNPSFEDHQTLLSAAHEVELQNQK,4.32
5,YNPSFEDHQTLLSAAHEVELQWQK,2.71
6,YNPSFEDHQTLLSAAHEVETQRQK,4.39
7,YNPSFEDHQTLLSAAHEVEDQRQK,4.29
8,YNPSFEDHQTLLSAAHEVEYQRQK,3.74
9,YNPSFEDHQTLLSAAHEVEIQRQK,3.71
10,YNPSFEDHQTLLSAAHEVEWQRQK,3.19
11,YNPSFEDHQTLLSAAHEVEVQRQK,3.63
12,YNPSFEDHQTLLSAAHEVEEQRQK,4.54
13,YNPSFEDHQTLLSAAHEVEKQRQK,4.44
14,YNPSFEDHQTLLSAAHEVEMQRQK,3.67
15,YNPSFEDHQTLLSAAHEVECQRQK,3.99
16,YNPSFEDHQTLLSAAHEVEHQRQK,4.51
17,YNPSFEDHQTLLSAAHEVEAQRQK,4.04
18,YNPSFEDHQTLLSAAHEVENQRQK,4.09
19,YNPSFEDHQTLLSAAHEVEQQRQK,3.87
20,YNPSFEDHQTLLSAAHEVEGQRQK,4.16
21,YNPSFEDHQTLLSAAHEVERQRQK,3.89
22,YNPSFEDHQTLLSAAHEVEPQRQK,4.46
23,YNPSFEDHQTLLSAAHEVESQRQK,4.26
24,YNPSFEDHQTLLSAAHEVEFQRQK,3.57

# Variants of: B2
# Assay: as above
# Conditions: c terminus: a fixed tail appended
row,Variant,protein stability index
1,QKRYHCKECGKVFSQSAPLIQHQR,2.29
2,QKRYHCKECGKVFSQSAALIQHQR,3.12
3,QKRYHHKECGKVFSQSAGLIQHQR,2.24
4,QKRYHPKECGKVFSQSAGLIQHQR,2.18
5,QKRYHMKECGKVFSQSAGLIQHQR,2.75
6,QKRYHYKECGKVFSQSAGLIQHQR,1.73
7,QKRYHCKECGKVVSQSAGLIQHQR,2.05
8,QKRYHCKECGKVFSGSAGLIQHQR,2.8
9,QKRYHCKECGKVFSHSAGLIQHQR,2.91
10,QKRLHCKECGKVFSQSAGLIQHQR,2.4
11,QKRWHCKECGKVFSQSAGLIQHQR,2.86
12,QQRYHCKECGKVFSQSAGLIQHQR,3.04
13,QRRYHCKECGKVFSQSAGLIQHQR,2.76
14,QKRYHCKECGKVFSQDAGLIQHQR,2.47
15,QKRYHCKECGKVFSQFAGLIQHQR,2.86
16,QKRYHCKECGKVFSQPAGLIQHQR,3.44
17,QKRYHCKECGKVFNQSAGLIQHQR,2.78
18,QKRYHCKECGKVFRQSAGLIQHQR,3.03
19,QKRYHCKECGKVFKQSAGLIQHQR,3.23
20,QKRYHCKECGKVFVQSAGLIQHQR,2.53
21,QKRYHCKECGKVFMQSAGLIQHQR,2.93
22,QKRYHCKECGKVFWQSAGLIQHQR,2.08
23,QKRYHCKECGKVFSQSAGIIQHQR,2.2

row,Variant,protein stability index
1,QKRYHCKECGKVFSQSAGKIQHQR,2.34
2,QKRYHCKECGKVFSQSAGLIQHQL,1.43
3,QKRYHCKECGKVFSQSAGLIQHQN,2
4,PKRYHCKECGKVFSQSAGLIQHQR,3.16
5,CKRYHCKECGKVFSQSAGLIQHQR,2.42
6,QKRYHCEECGKVFSQSAGLIQHQR,3.52
7,QKRYHCNECGKVFSQSAGLIQHQR,3.23
8,QKRYHCFECGKVFSQSAGLIQHQR,2.53
9,QKRYHCKQCGKVFSQSAGLIQHQR,2.91
10,QKRYHCKNCGKVFSQSAGLIQHQR,2.99
11,QKRYHCKECEKVFSQSAGLIQHQR,2.01
12,QKRYHCKECDKVFSQSAGLIQHQR,1.79
13,QKRYHCKECRKVFSQSAGLIQHQR,2
14,QKRYHCKECIKVFSQSAGLIQHQR,1.51
15,QKRYHCKECGKVFSQSAGLIRHQR,2.69
16,QKRYHCKECGVVFSQSAGLIQHQR,2.18
17,QKRYHCKECGDVFSQSAGLIQHQR,1.88
18,QKRYHCKECGQVFSQSAGLIQHQR,3.04
19,QKRYHCKECGTVFSQSAGLIQHQR,2.64
20,QKRYHCKECGKVFSQSAGLIQFQR,2.66
21,QKRYHCKECGKVFSQSAGLIQPQR,1.64
22,QKRYHCKECGKVFSQSAGLEQHQR,2.91
23,QKRYHCKECGKVFSQSAGLKQHQR,3.26

row,Variant,protein stability index
1,QKRYHCKECGKVFSQSAGLTQHQR,3.09
2,QKRYHCKEMGKVFSQSAGLIQHQR,2.63
3,QKRYHCKETGKVFSQSAGLIQHQR,3.27
4,QKRYHCKERGKVFSQSAGLIQHQR,3.38
5,QKRYHCKECGKMFSQSAGLIQHQR,2.6
6,QKRYHCKECGKLFSQSAGLIQHQR,2.25
7,QKRYHCKECGKKFSQSAGLIQHQR,3.2
8,QKRYHCKECGKIFSQSAGLIQHQR,2.76
9,QKRYICKECGKVFSQSAGLIQHQR,3.91
10,QKRYLCKECGKVFSQSAGLIQHQR,3.75
11,QKRYTCKECGKVFSQSAGLIQHQR,3.23
12,QKRYHCKECGKVFSQSAGLIQHYR,2.4
13,QKRYHCKECGKVFSQSAGLIQHDR,2.29
14,QKRYHCKECGKVFSQSAGLIQHIR,2.57
15,QKRYHCKECGKVFSQSAGLIQHTR,2.51
16,QKRYHCKECGKVFSQSFGLIQHQR,2.27
17,QKRYHCKECGKVFSQSEGLIQHQR,3.51
18,QKRYHCKECGKVFSQSQGLIQHQR,2.76
19,QKRYHCKECGKVFSQSLGLIQHQR,2.22
20,QKRYHCKECGKVFSQSMGLIQHQR,1.82
21,QKRYHCKECGKVFSQSCGLIQHQR,2.45
22,QKIYHCKECGKVFSQSAGLIQHQR,3.55
